# In the supplement of paper PMC10724198:
# ± gives the standard deviation of the averaged measurements.
# System: Saccharomyces cerevisiae
# Experiment: protein stability index of tFT-peptide fusion (C-terminal peptide) (PSI (0-1 scale)); higher = more stable (slower turnover)
# Conditions: genetic background: wild type; temperature: 30 C
# Protocol: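 Multiplexed protein stability (MPS) profiling in S. cerevisiae. Random 12-aa peptides (tFT-X12 library) are fused to the C-terminus of a sfGFP-mCherry tandem fluorescent timer, after mCherry and a GGGS linker. Cells are FACS-sorted into 8 mCherry/sfGFP bins and deep-sequenced. The protein stability index (PSI) is the read-weighted bin average, scaled from 0 (unstable) to 1 (stable). Only peptides with >10 reads are reported; cells were grown at 30 °C in SC-His with glucose.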
# 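Note: PSI is a weighted mean of sequencing reads over stability bins, variants kept only with over 10 reads, mCherry proximal and sfGFP distal, peptide attached via GGGS linker.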
row,Sequence,protein stability index
1,GGRGWGGEMGGR,0.7156 ± 0.0052
2,GGRGYRIKRKSV,0.806 ± 0.12
3,GGRHGSSRTGGY,0.696 ± 0.018
4,GGRKKEDEEEEA,0.651 ± 0.078
5,GGRPDQARPSRH,0.741 ± 0.043
6,GGRRGCFARWAR,0.697 ± 0.046
7,GGRRTLFCRFSY,0.702 ± 0.017
8,GGRVCGGRVEGQ,0.684 ± 0.007
9,GGRVFWGGSRSV,0.651 ± 0.033
10,GGRWWGRGVFGG,0.652 ± 0.028
11,GGSCGFGQGAGG,0.685 ± 0.025
12,GGSCTRNLLRYW,0.727 ± 0.011
13,GGSFVLGAALGV,0.668 ± 0.039
14,GGSGGRDGLCVG,0.738 ± 0.049
15,GGSLVRGAGVRS,0.686 ± 0.031
16,GGSWGGGGVFVR,0.637 ± 0.083
17,GGTAYFSNRGWA,0.595 ± 0.036
18,GGTGGRRGVGHV,0.655 ± 0.022
19,GGVEGGGCVGGG,0.581 ± 0.014
20,GGVGEFGEGALA,0.689 ± 0.044
21,GGVGGFGGAGLG,0.65 ± 0.023
22,GGVGGLGTLCGG,0.661 ± 0.051
23,GGVGWGMVEGWR,0.685 ± 0.057
24,GGVGWWWVRGMG,0.741 ± 0.029
25,GGVKGTRFLLRG,0.622 ± 0.051
26,GGVKVRGGMGPE,0.684 ± 0.019

row,Sequence,protein stability index
1,GGVRTLVSRHLP,0.7121 ± 0.0043
2,GGVSRSRNTRWN,0.677 ± 0.026
3,GGVVGVMWGGVR,0.624 ± 0.029
4,GGWARGRQGCGG,0.782 ± 0.011
5,GGWCGGSGRGAN,0.63 ± 0.04
6,GGWGGEVVLWQA,0.678 ± 0.073
7,GGWGSRGRVGDI,0.744 ± 0.045
8,GGWGTGTSGQGR,0.715 ± 0.027
9,GGWRGRAGENTR,0.698 ± 0.036
10,GGWWGGGGAWSG,0.689 ± 0.053
11,GHNTPRRVMSRC,0.689 ± 0.037
12,GHVEGPGDAESS,0.701 ± 0.071
13,GHVGFSKVSGKG,0.664 ± 0.026
14,GICLLRLDTFNI,0.667 ± 0.1
15,GIFSGTDRNLVC,0.7075 ± 0.0069
16,GIGGSGLVSVVD,0.716 ± 0.039
17,GIGLVIEDKLLL,0.683 ± 0.042
18,GIGVRLGFWCRG,0.75 ± 0.05
19,GILVDGRGRGCR,0.735 ± 0.039
20,GIMFVSEPVLSS,0.664 ± 0.0025
21,GIPPFFTLCRLS,0.57 ± 0.034
22,GIRHSNLGQALE,0.686 ± 0.11
23,GITAWMAHPRSV,0.706 ± 0.012
24,GIVGCDFLLFYF,0.698 ± 0.018
25,GIVGLFSALSLL,0.706 ± 0.1
26,GIWVMVSVCSIA,0.537 ± 0.082

row,Sequence,protein stability index
1,GIWVWRGARSVG,0.745 ± 0.054
2,GIYCSFSCKPCP,0.6699 ± 0.0042
3,GKAKGRESGDRQ,0.678 ± 0.039
4,GKKKKKERKHGA,0.7351 ± 0.0055
5,GKKKRKTKGKNR,0.663 ± 0.035
6,GKKKVKEWKKQM,0.604 ± 0.025
7,GKKRFENKKEKY,0.762 ± 0.12
8,GKMQIRRFISRS,0.67 ± 0.0088
9,GKPSEMSMREDS,0.704 ± 0.019
10,GKRHSYSIISSV,0.668 ± 0.061
11,GKRLKKTRTKKS,0.704 ± 0.059
12,GKRLRFNRRTRA,0.662 ± 0.11
13,GKVTRGTRRGGK,0.66901 ± 0.0003
14,GLADPPNSRPAG,0.673 ± 0.05
15,GLASFVMQVAPF,0.705 ± 0.008
16,GLDEAYVSRNIN,0.647 ± 0.011
17,GLDRCFTSFYSI,0.702 ± 0.059
18,GLFSTRLFCTFL,0.635 ± 0.026
19,GLGEGLVCFLLG,0.73 ± 0.056
20,GLGGRGRRASEW,0.664 ± 0.071
21,GLGKFSALSLVV,0.658 ± 0.044
22,GLGLGLSGGAML,0.665 ± 0.069
23,GLGMIIQNIIHS,0.642 ± 0.026
24,GLGPMPRGTSTI,0.692 ± 0.1
25,GLGRWGCLEGLG,0.716 ± 0.071
26,GLGTAFGAADTV,0.693 ± 0.012

row,Sequence,protein stability index
1,GLGVCSPRFLVL,0.763 ± 0.15
2,GLGVWDLRLGWG,0.701 ± 0.011
3,GLHSSNQLGALY,0.677 ± 0.036
4,GLLCSKTCCAGV,0.6453 ± 0.0024
5,GLLDGEILKRRI,0.6978 ± 0.0053
6,GLLEGGLWVWGL,0.692 ± 0.04
7,GLLQRCGAWRGS,0.656 ± 0.04
8,GLMAIKVNLNHS,0.619 ± 0.032
9,GLPFPPGPIFVS,0.743 ± 0.19
10,GLPPPPQPLPHA,0.726 ± 0.14
11,GLPPPSPPVPLL,0.683 ± 0.043
12,GLRPPGLRLGSL,0.6475 ± 0.0047
13,GLRPPPLRPAPP,0.704 ± 0.08
14,GLRSDIGQVTHP,0.635 ± 0.066
15,GLSEPWVFFLRC,0.64 ± 0.012
16,GLSRAWVAGVRG,0.735 ± 0.037
17,GLVCSHLRTAGS,0.6857 ± 0.0063
18,GLVRWRWGDRPS,0.56 ± 0.066
19,GLVSALSGLLTP,0.651 ± 0.089
20,GLWQRVGIVIGC,0.58 ± 0.017
21,GLYRQRVCLRSG,0.6097 ± 0.0036
22,GMAKGWHCESSS,0.716 ± 0.041
23,GMLGVIGGKVGR,0.699 ± 0.052
24,GMQVRNTKERRG,0.714 ± 0.02
25,GMRFDTERKWLL,0.695 ± 0.084
26,GMSFALSVYFFP,0.601 ± 0.01

row,Sequence,protein stability index
1,GMVRVRSIATHG,0.597 ± 0.034
2,GNFAGLTRDRGP,0.674 ± 0.052
3,GNFIGSWLHTVD,0.811 ± 0.11
4,GNGEGRKPPRPP,0.619 ± 0.014
5,GNKKRDSDKIKE,0.6054 ± 0.0028
6,GNLFIGLLHITC,0.5753 ± 0.0034
7,GNLVSFCTKKGA,0.722 ± 0.014
8,GNPDFQVTKNPY,0.67 ± 0.078
9,GNQAILGRYLSV,0.623 ± 0.051
10,GNVAMRKNIIGL,0.674 ± 0.057
11,GNVNCNLRRYYI,0.766 ± 0.086
12,GPAAPAGNPETV,0.6694 ± 0.0043
13,GPCPCAPRSPSY,0.6705 ± 0.0033
14,GPFLFPGASCGL,0.717 ± 0.011
15,GPFRGRCFPFCI,0.667 ± 0.037
16,GPGCVFFLACRG,0.559 ± 0.024
17,GPGFGEFVWSLW,0.692 ± 0.044
18,GPGPRLSCLVPT,0.73 ± 0.035
19,GPGTYGASLSGR,0.65 ± 0.053
20,GPKGVTRCGATR,0.721 ± 0.12
21,GPKPHREKKSIN,0.73 ± 0.045
22,GPKSPLVCSPPP,0.657 ± 0.13
23,GPLATACPPALT,0.701 ± 0.046
24,GPLPPPFSALPP,0.703 ± 0.024
25,GPLRFSLPPPPS,0.69 ± 0.017
26,GPRPHVLPLAYF,0.675 ± 0.024

row,Sequence,protein stability index
1,GPRTPPKPRQVP,0.616 ± 0.024
2,GPSCSGLHAPTS,0.831 ± 0.1
3,GPSGGSGGGGVG,0.597 ± 0.049
4,GPSLLLLSVLSE,0.6225 ± 0.003
5,GPTSTETYKEVG,0.671 ± 0.0011
6,GPVLELWLGRSR,0.775 ± 0.04
7,GPVQSISMTVGH,0.6548 ± 0.0025
8,GPVSVTFGGTYC,0.678 ± 0.046
9,GPWGGRLSWAPG,0.636 ± 0.0092
10,GQMSKMRDRLIA,0.652 ± 0.0094
11,GQPGDCWRVCPR,0.6851 ± 0.0027
12,GQPLAEKFGEFV,0.623 ± 0.088
13,GRAPPGHSLPVR,0.7187 ± 0.0071
14,GRAWWVGGEGVW,0.677 ± 0.014
15,GRCGGEGGGEEE,0.673 ± 0.031
16,GRCRALVARGGH,0.76 ± 0.2
17,GREVRGLRVPGS,0.653 ± 0.071
18,GRGEDLVRRHTP,0.668 ± 0.032
19,GRGEGVDRSSRR,0.703 ± 0.017
20,GRGGGEEEEEER,0.663 ± 0.024
21,GRGGGSRIVGGV,0.704 ± 0.023
22,GRGGRGWGEWDR,0.706 ± 0.059
23,GRGGVLEEAVGG,0.654 ± 0.077
24,GRGIVVQNVLRQ,0.696 ± 0.011
25,GRGVDGRSGCLL,0.6732 ± 0.0029
